Reference: paper PMC3554631, “Structural Basis of a Histone H3 Lysine 4 Demethylase Required for Stem Elongation in Rice” (PLoS Genetics, 2013)
Where no end group is shown, it is not given here. Me3 = trimethyl

Assays:
[1] = target: T1, c-JMJ703, catalytic core domain of JMJ703 (amino acids 139 to 498) (rice, UniProt Q53WJ1 139-498); experiment: SPR; BIAcore 3000, 25°C; c-JMJ703 amine-coupled to a CM5 chip; peptides injected at various concentrations at 10 µL/min for 2 min in 10 mM HEPES pH 7.5, 150 mM NaCl, 0.005% Tween20; reference flow cell subtracted; details: both partners purified
T1 construct: JMJ703, rice JmjC domain-containing histone H3K4 demethylase; amino acids 139 to 498, covering the JmjN domain (A139-K199), long beta-hairpin (D200-T271), mixed domain (L272-V377) and JmjC domain (L378-A498); Cloned into pET-28a with BamHI and XhoI; also called J3NC; catalytic core of JMJ703; source: E. coli Rosetta (DE3), purified (Ni-NTA, thrombin cleavage, Hitrap Q anion exchange)

[2] = target: T2, FA-J3NCZ, FLAG:HA-tagged JmjN-JmjC-zinc finger region of JMJ703 (amino acids 113 to 700) (rice, UniProt Q53WJ1 113-700); experiment: SPR; J3NCZ (FA-J3NCZ) with different concentrations of peptide; set-up for this protein not told in the methods; details: both partners purified
T2 construct: JMJ703, rice; JmjN-JmjC-zinc finger region between amino acids 113 and 700; the only production of J3NCZ that the methods tell is the FLAG:HA-tagged one from tobacco cells (vector pFA121); source: tobacco leaf cells (Agrobacterium infection), purified with Anti-FLAG M2 magnetic beads
T2 sequence (looked up): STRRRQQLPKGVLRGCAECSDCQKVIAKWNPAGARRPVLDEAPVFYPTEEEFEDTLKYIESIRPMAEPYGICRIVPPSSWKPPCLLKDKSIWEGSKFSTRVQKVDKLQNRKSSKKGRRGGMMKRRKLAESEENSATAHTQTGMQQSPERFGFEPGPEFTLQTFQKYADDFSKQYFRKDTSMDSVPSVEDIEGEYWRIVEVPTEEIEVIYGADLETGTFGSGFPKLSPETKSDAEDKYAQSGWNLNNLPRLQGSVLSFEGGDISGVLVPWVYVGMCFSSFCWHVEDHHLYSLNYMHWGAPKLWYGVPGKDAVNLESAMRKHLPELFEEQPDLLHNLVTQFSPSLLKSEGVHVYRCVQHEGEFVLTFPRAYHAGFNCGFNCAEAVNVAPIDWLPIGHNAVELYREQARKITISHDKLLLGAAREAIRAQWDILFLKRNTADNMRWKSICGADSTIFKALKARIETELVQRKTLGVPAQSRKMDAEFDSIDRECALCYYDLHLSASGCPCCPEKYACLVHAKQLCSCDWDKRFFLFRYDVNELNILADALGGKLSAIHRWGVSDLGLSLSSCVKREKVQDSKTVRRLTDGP

**Q.** Which Kd [1] does the source give for ARTK(Me3)QTARKS [H3K4me3 peptide (ARTKme3QTARKS)] here?
**A.** Its Kd is 30.1 µM.

**Q.** And the Kd [2]?
**A.** Its Kd is 15.9 µM.
